Source: article PMC9765439, “Systems-Wide Dissection of Organic Acid Assimilation in Pseudomonas aeruginosa Reveals a Novel Path To Underground Metabolism” (mBio, 2022)

What was measured:
Test in all cases: purified protein
Assay type in all cases: biochemical, Pseudomonas aeruginosa
purified protein [1] = substrate: CCC(=O)SCCNC(=O)CCNC(=O)[C@H](O)C(C)(C)COP(=O)(O)OP(=O)(O)OC[C@H]1O[C@@H](n2cnc3c(N)ncnc32)[C@H](O)[C@@H]1OP(=O)(O)O; settings: 0.5 mM oxaloacetate, 50 mM HEPES pH 7.5, 0.1 M KCl, 0.54 M glycerol, 37 °C
purified protein [2] = substrate: CC(=O)SCCNC(=O)CCNC(=O)[C@H](O)C(C)(C)COP(=O)(O)OP(=O)(O)OC[C@H]1O[C@@H](n2cnc3c(N)ncnc32)[C@H](O)[C@@H]1OP(=O)(O)O; settings: 0.5 mM oxaloacetate, 50 mM HEPES pH 7.5, 0.1 M KCl, 0.54 M glycerol, 37 °C
purified protein [3] = substrate: O=C(O)CC(=O)C(=O)O; settings: 0.5 mM propionyl-CoA, 50 mM HEPES pH 7.5, 0.1 M KCl, 0.54 M glycerol, 37 °C

B1: PrpCPa (2-methylcitrate synthase, 2-MCS) (Pseudomonas aeruginosa PAO1) (protein)
chain: MAEAKVLSGAGLRGQVAGQTALSTVGQEGAGLTYRGYDVRDLAAAAIFEEVAYLLLYGELPNKQQLDAYLKKLQGQRDLPQALKEVLERIPKDAHPMDVMRTGASVLGTLEPELSFDQQRDVADRLLAAFPAIMTYWYRFTHEGQRIDCNSDEPTIGGHFLALLHGKKPSELHVKVMNVSLILYAEHEFNASTFTARVCASTLSDLYSCVTGAIGSLRGPLHGGANEAAMELIERFSSPQEATAELLKMLERKDKIMGFGHAIYKDSDPRNEVIKGWSKQLADEVGDKVLFAVSEAIDKTMWEQKKLFPNADFYHASAYHFMGIPTKLFTPIFVCSRTSGWTAHVFEQRANNRIIRPSAEYTGVEQRAFVPLEQR
notes: pET-19m, N-terminal TEV-cleavable His6 tag, cut; E. coli host; homodimer
- Km (purified protein [1]): 45 µM
- Km (purified protein [2]): 28 µM
- kcat/Km (purified protein [2]): 114000 M⁻¹ s⁻¹
- Km (purified protein [3]): 15.65 µM
- kcat/Km (purified protein [3]): 228000 M⁻¹ s⁻¹
